This note sets out measurements from US20220332800A1 (Takeda / Millennium, published 2022).

Positions count from the first letter of the chain named.

Experiment [1] concerns the target T1, ZIKV-VLP (Native Antigen Inc.) (Zika virus).
T1 construct: also called Zika VLP; ZVLP
In words: ELISA, purified recombinant mAb. (In general: In an ELISA, binding on a coated surface is turned into a signal by an enzyme label.)

Experiment [2] concerns the target T1, ZIKV-VLP (Native Antigen Inc.). Briefly: indirect ELISA, purified antibody serially diluted from 10 µg/ml.
For experiment [3] the target is unchanged. Briefly: BLI binning on ZIKV-VLP; 1st mAb (row): 242-3.
Experiment [4] has the same target. Briefly: BLI binning on ZIKV-VLP; 1st mAb: 4G2.
Experiment [5] has the same target. In words: BLI binning on ZIKV-VLP; 1st mAb (row): C10.
Experiment [6] shares this target. In words: BLI (Octet), supernatant IgG captured on Protein A biosensor, ZIKV-VLP 3.3 µg/mL in solution, 1:1 model. A general note: In BLI a coated tip is dipped into the sample, and binding shifts an interference pattern.
For experiment [7] the target is unchanged. Briefly: ELISA, hybridoma supernatant (Abcam data).
Experiment [8] shares this target. In words: BLI binning on ZIKV-VLP; 1st mAb: 11-3.
Experiment [9] has the same target. Briefly: BLI binning on ZIKV-VLP; 1st mAb: Ab1.
The target is the same in experiment [10]. Briefly: BLI binning on ZIKV-VLP; 1st mAb: 260-2.
For experiment [11] the target is unchanged. Briefly: BLI binning on ZIKV-VLP; 1st mAb (row): 289-3.
Experiment [12] shares this target. In words: BLI binning on ZIKV-VLP; 1st mAb: 102-1.
For experiment [13] the target is unchanged. In words: indirect ELISA, subclone supernatant.
Experiment [14] shares this target. Briefly: BLI binning on ZIKV-VLP; 1st mAb (row): 306-2.
The target is the same in experiment [15]. In words: BLI binning on ZIKV-VLP; 1st mAb: C10.
For experiment [16] the target is unchanged. Briefly: BLI binning on ZIKV-VLP; 1st mAb: 181-4.
For experiment [17] the target is unchanged. Briefly: BLI binning on ZIKV-VLP; 1st mAb: 306-2.
The target is the same in experiment [18]. Briefly: BLI binning on ZIKV-VLP; 1st mAb (row): 102-1.
Experiment [19] shares this target. In words: BLI binning on ZIKV-VLP; 1st mAb: 329-2.
For experiment [20] the target is unchanged. In words: BLI binning on ZIKV-VLP; 1st mAb (row): 270-12.
For experiment [21] the target is unchanged. In words: BLI binning on ZIKV-VLP; 1st mAb: 242-3.
The target is the same in experiment [22]. Briefly: BLI binning on ZIKV-VLP; 1st mAb: 270-12.
Experiment [23] shares this target. In words: BLI binning on ZIKV-VLP; 1st mAb: Ab2.
For experiment [24] the target is unchanged. In words: BLI binning on ZIKV-VLP; 1st mAb: 289-3.
Experiment [25] has the same target. In words: BLI binning on ZIKV-VLP; 1st mAb: 78-2.
For a further experiment, the target named is Zika PRVABC59 live virus (Zika virus). In words: cell-based or functional assay.

B1: anti-ZIKV antibody 289-3 (antibody, V domains shown)
VH: QEELEESGGDLVKPGASLTLTCKASGFSFSSGAYICWVRQAPGKGPEWIACIYTGDGRTYYANWAKRRFTISSSSSTTVALEMPSLTDADTATYFCARAIAVGAGYGVGNYFTLWGPGTLVTVSS
VL: DIVMTQTPSSVSAAVGGTVTINCHASENIYGYLSWYQQKPGQPPKLLIYKASTLASGVPSRFKGSGAGTQFTLTITALECADAATYYCQSYYTSSSNADGSENAFGGGTEVVVEG
notes: also called clone 289-3; subclone 289-3
Usually EC50 stands for the midpoint of the concentration-response curve. Read a low EC50 as a more potent agent. As a reminder, the koff is the first-order rate constant of dissociation. On to B1, for which the “ELISA OD” value in [1] was found to be 3.21 OD. Further, in experiment [2], the half-maximal effective concentration (EC50) worked out at 0.00724 µg/mL. For the same molecule, the “response of 2nd mAb” value was 0.0011 in experiment [3]; 1.04 in experiment [4]; 0.0265 in experiment [5]; 0.52 in experiment [8]; 0.4 in experiment [9]; 0.04 in [10]. Also, the “response of 2nd mAb” value is 0.0128 in [11]; 0.09 in experiment [12]; 0.0428 in experiment [14]; 4.55 in experiment [15]; 0.01 in experiment [16]; 0.24 in experiment [17]. The “response of 2nd mAb” value in experiment [18] was 0.0047; in experiment [19] it was -0.01; in [20], 0.0064; in experiment [21], 0.07; in [22] it was 0.02; in [23], 3.79. The entries for the “response of 2nd mAb” value in experiment [24] and in [25] were 0.02 and 0.46, respectively. In addition, the koff in experiment [6] came to 0.000113 s⁻¹. Moreover, the OD in experiment [7] came out at 0.94 OD. Moreover, the “VLP (OD) binding” value in experiment [13] was 0.94 OD.

B2: anti-ZIKV antibody 181-4/329-2 (antibody)
heavy: QAQLEESGGDLVKPEGSLTLTCTASGFSFTDRHYMCWVRQAPGKGLEWIACVYPGSSGSTYYASWARGRFTISKTSSTTVTLRMTSLTAADTATYFCARSSYPDSSGYSYGMDLWGPGTLVTVSSGQPKAPSVFPLAPCCGDTPSSTVTLGCLVKGYLPEPVTVTWNSGTLTNGVRTFPSVRQSSGLYSLSSVVSVTSSSQPVTCNVAHPATNTKVDKTVAPSTCSKPTCPPPELLGGPSVFIFPPKPKDTLMISRTPEVTCVVVDVSQDDPEVQFTWYINNEQVRTARPPLREQQFNSTIRVVSTLPIAHQDWLRGKEFKCKVHNKALPAPIEKTISKARGQPLEPKVYTMGPPREELSSRSVSLTCMINGFYPSDISVEWEKNGKAEDNYKTTPAVLDSDGSYFLYSKLSVPTSEWQRGDVFTCSVMHEALHNHYTQKSISRSPGK
light: DIVMTQTPASVEAAVGGTVTIKCQASQNINSNLAWYQQKPGQRPKFLMYLTSKLASGVPSRFRGSGSGTQFTLTISDLECADAATYYCQTYYDISNYGYAFGGGTEVVVKGDPVAPTVLIFPPAADQVATGTVTIVCVANKYFPDVTVTWEVDGTTQTTGIENSKTPQNSADCTYNLSSTLTLTSTQYNSHKEYTCKVTQGTTSVVQSFNRGDC
In experiment [2], B2 showed an EC50 of 0.0114 µg/mL. Besides, the koff in [6] was below 1e-07 s⁻¹. Besides, in the experiment with Zika PRVABC59 live virus, the “MNT IC50 (ng/mL) of Purified antibody” value is 26.7 ng/mL. Besides, in [21], the “response of 2nd mAb” value amounted to 0.01.

B3: anti-ZIKV antibody 260-3 (antibody)
heavy: B2 heavy with S124P
light: B2 light
notes: also called clone 260-3
B3 yielded an EC50 in [2] of 0.00793 µg/mL. Besides, the “response of 2nd mAb” value in experiment [4] was 0.67; in [8], 0.36; in experiment [9], 0.32; in experiment [10] it was 0; in experiment [12] it was 0.03; in experiment [15] it was 4.06. For the same molecule, the “response of 2nd mAb” value in [16] turned out to be 0; in experiment [17], 0.32; in [19], 0.01; in [21], 0.01; in [22], 0.01; in experiment [23], 4.96. The “response of 2nd mAb” value was -0.03 in [24] and 0.33 in [25]. Moreover, in experiment [6], the koff was below 1e-07 s⁻¹. The “MNT IC50 (ng/mL) of Purified antibody” value with Zika PRVABC59 live virus is 19.9 ng/mL.
